Test results from doi:10.64898/2025.12.12.693941 (bioRxiv, 2025).

Key:
SEC-MALS = target: the molecule itself; assay: SEC-MALS
[1] = target: M. tuberculosis LigD, wild type, His-tag removed by TEV (MST analyte) (M. tuberculosis, UniProt P9WNV3 1-759); assay: MST
[2] = target: M. tuberculosis LigD V194D (M. tuberculosis, UniProt P9WNV3 1-759, V194D); assay: MST
[3] = target: M. tuberculosis LigD K579E (M. tuberculosis, UniProt P9WNV3 1-759, K579E); assay: MST
[4] = target: M. tuberculosis LigD L580E (M. tuberculosis, UniProt P9WNV3 1-759, L580E); assay: MST
[5] = target: M. tuberculosis LigD R198E (M. tuberculosis, UniProt P9WNV3 1-759, R198E); assay: MST
[6] = target: M. tuberculosis LigD D162R (M. tuberculosis, UniProt P9WNV3 1-759, D162R); assay: MST

B1: M. tuberculosis Ku R262A (natural protein)
chain: MRAIWTGSIAFGLVNVPVKVYSATADHDIRFHQVHAKDNGRIRYKRVCEACGEVVDYRDLARAYESGDGQMVAITDDDIASLPEERSREIEVLEFVPAADVDPMMFDRSYFLEPDSKSSKSYVLLAKTLAETDRMAIVHFTLRNKTRLAALRVKDFGKREVMMVHTLLWPDEIRDPDFPVLDQKVEIKPAELKMAGQVVDSMADDFNPDRYHDTYQEQLQELIDTKLEGGQAFTAEDQPRLLDEPEDVSDLLAKLEASVKAASKANSNVPTPP
stoichiometry N (SEC-MALS): 2 | binding result [1]: binds

B2: M. tuberculosis Ku S263A (natural protein)
chain: MRAIWTGSIAFGLVNVPVKVYSATADHDIRFHQVHAKDNGRIRYKRVCEACGEVVDYRDLARAYESGDGQMVAITDDDIASLPEERSREIEVLEFVPAADVDPMMFDRSYFLEPDSKSSKSYVLLAKTLAETDRMAIVHFTLRNKTRLAALRVKDFGKREVMMVHTLLWPDEIRDPDFPVLDQKVEIKPAELKMAGQVVDSMADDFNPDRYHDTYQEQLQELIDTKLEGGQAFTAEDQPRLLDEPEDVSDLLAKLEASVKARAKANSNVPTPP
stoichiometry N (SEC-MALS): 2 | binding result [1]: binds

B3: M. tuberculosis Ku, wild type, His-tag removed by TEV (MST analyte) (natural protein)
chain: MRAIWTGSIAFGLVNVPVKVYSATADHDIRFHQVHAKDNGRIRYKRVCEACGEVVDYRDLARAYESGDGQMVAITDDDIASLPEERSREIEVLEFVPAADVDPMMFDRSYFLEPDSKSSKSYVLLAKTLAETDRMAIVHFTLRNKTRLAALRVKDFGKREVMMVHTLLWPDEIRDPDFPVLDQKVEIKPAELKMAGQVVDSMADDFNPDRYHDTYQEQLQELIDTKLEGGQAFTAEDQPRLLDEPEDVSDLLAKLEASVKARSKANSNVPTPP
binding result [2]: binds | Kd [3]: 510 nM | Kd [4]: 1270 nM | binding result [5]: binds | binding result [6]: binds

B4: M. tuberculosis Ku, wild type, His-tagged and RED-tris-NTA labelled (MST ligand) (natural protein)
chain: MRAIWTGSIAFGLVNVPVKVYSATADHDIRFHQVHAKDNGRIRYKRVCEACGEVVDYRDLARAYESGDGQMVAITDDDIASLPEERSREIEVLEFVPAADVDPMMFDRSYFLEPDSKSSKSYVLLAKTLAETDRMAIVHFTLRNKTRLAALRVKDFGKREVMMVHTLLWPDEIRDPDFPVLDQKVEIKPAELKMAGQVVDSMADDFNPDRYHDTYQEQLQELIDTKLEGGQAFTAEDQPRLLDEPEDVSDLLAKLEASVKARSKANSNVPTPP
Kd [1]: 850 nM

B5: M. tuberculosis Ku E246A (natural protein)
chain: MRAIWTGSIAFGLVNVPVKVYSATADHDIRFHQVHAKDNGRIRYKRVCEACGEVVDYRDLARAYESGDGQMVAITDDDIASLPEERSREIEVLEFVPAADVDPMMFDRSYFLEPDSKSSKSYVLLAKTLAETDRMAIVHFTLRNKTRLAALRVKDFGKREVMMVHTLLWPDEIRDPDFPVLDQKVEIKPAELKMAGQVVDSMADDFNPDRYHDTYQEQLQELIDTKLEGGQAFTAEDQPRLLDEPADVSDLLAKLEASVKARSKANSNVPTPP
stoichiometry N (SEC-MALS): 2 | binding result [1]: binds

B6: M. tuberculosis Ku V248A (natural protein)
chain: MRAIWTGSIAFGLVNVPVKVYSATADHDIRFHQVHAKDNGRIRYKRVCEACGEVVDYRDLARAYESGDGQMVAITDDDIASLPEERSREIEVLEFVPAADVDPMMFDRSYFLEPDSKSSKSYVLLAKTLAETDRMAIVHFTLRNKTRLAALRVKDFGKREVMMVHTLLWPDEIRDPDFPVLDQKVEIKPAELKMAGQVVDSMADDFNPDRYHDTYQEQLQELIDTKLEGGQAFTAEDQPRLLDEPEDASDLLAKLEASVKARSKANSNVPTPP
stoichiometry N (SEC-MALS): 2 | binding result [1]: binds

B7: M. tuberculosis Ku S258A (natural protein)
chain: MRAIWTGSIAFGLVNVPVKVYSATADHDIRFHQVHAKDNGRIRYKRVCEACGEVVDYRDLARAYESGDGQMVAITDDDIASLPEERSREIEVLEFVPAADVDPMMFDRSYFLEPDSKSSKSYVLLAKTLAETDRMAIVHFTLRNKTRLAALRVKDFGKREVMMVHTLLWPDEIRDPDFPVLDQKVEIKPAELKMAGQVVDSMADDFNPDRYHDTYQEQLQELIDTKLEGGQAFTAEDQPRLLDEPEDVSDLLAKLEAAVKARSKANSNVPTPP
stoichiometry N (SEC-MALS): 2 | binding result [1]: binds

B8: M. tuberculosis Ku K260A (natural protein)
chain: MRAIWTGSIAFGLVNVPVKVYSATADHDIRFHQVHAKDNGRIRYKRVCEACGEVVDYRDLARAYESGDGQMVAITDDDIASLPEERSREIEVLEFVPAADVDPMMFDRSYFLEPDSKSSKSYVLLAKTLAETDRMAIVHFTLRNKTRLAALRVKDFGKREVMMVHTLLWPDEIRDPDFPVLDQKVEIKPAELKMAGQVVDSMADDFNPDRYHDTYQEQLQELIDTKLEGGQAFTAEDQPRLLDEPEDVSDLLAKLEASVAARSKANSNVPTPP
stoichiometry N (SEC-MALS): 2 | binding result [1]: binds

B9: M. tuberculosis Ku E256A (natural protein)
chain: MRAIWTGSIAFGLVNVPVKVYSATADHDIRFHQVHAKDNGRIRYKRVCEACGEVVDYRDLARAYESGDGQMVAITDDDIASLPEERSREIEVLEFVPAADVDPMMFDRSYFLEPDSKSSKSYVLLAKTLAETDRMAIVHFTLRNKTRLAALRVKDFGKREVMMVHTLLWPDEIRDPDFPVLDQKVEIKPAELKMAGQVVDSMADDFNPDRYHDTYQEQLQELIDTKLEGGQAFTAEDQPRLLDEPEDVSDLLAKLAASVKARSKANSNVPTPP
stoichiometry N (SEC-MALS): 2 | binding result [1]: binds

B10: M. tuberculosis Ku N266A (natural protein)
chain: MRAIWTGSIAFGLVNVPVKVYSATADHDIRFHQVHAKDNGRIRYKRVCEACGEVVDYRDLARAYESGDGQMVAITDDDIASLPEERSREIEVLEFVPAADVDPMMFDRSYFLEPDSKSSKSYVLLAKTLAETDRMAIVHFTLRNKTRLAALRVKDFGKREVMMVHTLLWPDEIRDPDFPVLDQKVEIKPAELKMAGQVVDSMADDFNPDRYHDTYQEQLQELIDTKLEGGQAFTAEDQPRLLDEPEDVSDLLAKLEASVKARSKAASNVPTPP
stoichiometry N (SEC-MALS): 2
